Assays:
IL-4 = IL-4 (Homo sapiens, UniProt P05112 P05112:25-153); experiment: filter; group 1 stated to bind IL-4; details: tags: R&D Systems
IL-10 = IL-10 (Homo sapiens, UniProt P22301 P22301:19-178); experiment: filter; group statement, at 250 nM IL-10; details: tags: Bachem or R&D Systems; chain copies: 2
TNF-alpha = TNF-alpha (Homo sapiens, UniProt P01375 P01375:77-233); experiment: filter; class I; details: tags: Genzyme or R&D Systems; chain copies: 3 inferred
TNF-alpha, sequence (P01375 77-233, one chain of several): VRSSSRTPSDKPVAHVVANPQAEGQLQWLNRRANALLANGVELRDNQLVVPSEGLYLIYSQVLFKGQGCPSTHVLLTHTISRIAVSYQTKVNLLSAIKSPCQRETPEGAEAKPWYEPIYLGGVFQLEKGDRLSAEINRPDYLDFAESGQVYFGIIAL

IL-10, sequence (P22301 19-178, one chain of several): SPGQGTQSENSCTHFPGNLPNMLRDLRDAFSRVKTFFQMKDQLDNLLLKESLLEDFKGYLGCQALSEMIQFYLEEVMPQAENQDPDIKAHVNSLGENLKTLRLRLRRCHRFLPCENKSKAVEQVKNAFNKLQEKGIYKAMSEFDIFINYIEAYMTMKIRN
IL-4, sequence (P05112 25-153, one chain of several): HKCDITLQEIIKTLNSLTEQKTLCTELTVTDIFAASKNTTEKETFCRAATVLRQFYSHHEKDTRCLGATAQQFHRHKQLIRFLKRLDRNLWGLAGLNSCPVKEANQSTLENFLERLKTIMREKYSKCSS

Row | Binder | binding result (IL-4) | binding result (IL-10) | other results
1 | IL-4 2'NH2-B18 (ssRNA, 2'-NH2 C and U) RNA: GGGAGACAAGAAUAAACGCUCAACGAUGGAGCGCCACAUCGCUAUAACGGCAUUUAACAAAAUUUCGACAGGAGGCUCACAACAGGC | binds |  | 
2 | IL-4 2'NH2-17 (ssRNA, 2'-NH2 C and U) RNA: GGGAGACAAGAAUAAACGCUCAAGUAUUGGGGAGCCACAUUACAACGGCACAGGCAACCAGGGUUCGACAGGAGGCUCACAACAGGC | binds |  | 
3 | IL-4 2'NH2-B24 (ssRNA, 2'-NH2 C and U) RNA: GGGAGACAAGAAUAAACGCUCAAAGAUUUAAAGUAUUUGGGGAGCCACAUCAACGGCAUUGUGUUCGACAGGAGGCUCACAACAGGC | binds |  | 
4 | IL-10 ligand 59 (ssRNA, 2'-F C and U) RNA: GGGAGACAAGAAUAAACGCUCAACGUAAAAGUUAUCGAAUCUCUGUGAGCCUGGAUCGAUUACUUCGACAGGAGGCUCACAACAGGC |  | binds | 
5 | IL-10 ligand 3 (ssRNA, 2'-F C and U) RNA: GGGAGACAAGAAUAAACGCUCAACUGAGAUCUCUAAGAGCCUGGACUCAGCUACGAUUGAGCGUUUAUUCUUGUUCGACAGGAGGCUCACAACAGGC |  | binds | 
6 | IL-4 2'NH2-B14 (ssRNA, 2'-NH2 C and U) RNA: GGGAGACAAGAAUAAACGCUCAAUAAAUGGAGAGCCACACUAACGGCGUAUGAAAACACUCAUUCGACAGGAGGCUCACAACAGGC | binds |  | 
7 | IL-10 ligand 54 (ssRNA, 2'-F C and U) RNA: GGGAGACAAGAAUAAACGCUCAAAUCCCAAUCUCUAAGAGCCUGGAUGACAAUCGCAUUGGGCUUCGACAGGAGGCUCACAACAGGC |  | binds | 
8 | IL-10 ligand 64 (ssRNA, 2'-F C and U) RNA: GGGAGACAAGAAUAAACGCUCAAACAUCGUAUAACUCUAAGCGCCUGGAUAUACGAUGAAUUCGACAGGAGGCUCACAACAGGC |  | binds | 
9 | IL-10 ligand 64b (ssRNA, 2'-F C and U) RNA: GGGAGACAAGAAUAAACGCUCAAACAUCGUAUAACUCUAAGUGCCUGGAUAUACGAUGAAUUCGACAGGAGGCUCACAACAGGC |  | binds | 
10 | IL-10 ligand 64a (ssRNA, 2'-F C and U) RNA: GGGAGACAAGAAUAAACGCUCAAACAUCGUAUAACUCUAAGAGCCUGGAUAUACGAUGAAUUCGACAGGAGGCUCACAACAGGC |  | binds | 
11 | IL-10 ligand 15 (ssRNA, 2'-F C and U) RNA: GGGAGACAAGAAUAAACGCUCAAUCUCUAUGAGCCUGGAUCGACGAACUCUCUACGGGCUGUGUUCGACAGGAGGCUCACAACAGGC |  | binds | 
12 | IL-4 2'NH2-B16 (ssRNA, 2'-NH2 C and U) RNA: GGGAGACAAGAAUAAACGCUCAAUCACAAGCACCCUUGGGGAGCCACAUUAACGGCCUAGGCUUCGACAGGAGGCUCACAACAGGC | binds |  | 
13 | IL-4 2'NH2-B26 (ssRNA, 2'-NH2 C and U) RNA: GGGAGACAAGAAUAAACGCUCAAAUGGAGAGCCACAUUAACGGCAGCAUAUCACAGUAGGAAUUCGACAGGAGGCUCACAACAGGC | binds |  | 
14 | IL-4 2'NH2-B8 (ssRNA, 2'-NH2 C and U) RNA: GGGAGACAAGAAUAAACGCUCAAUGUGGGGAGCCACAGUUAACGGCUUCAACUGAUUAGAAUUCGACAGGAGGCUCACAACAGGC | binds |  | 
15 | IL-4 2'NH2-22 (ssRNA, 2'-NH2 C and U) RNA: GGGAGACAAGAAUAAACGCUCAACAGAUGGUAUCUAGUGGAGAGCCACAUCAACGGCGCAGAUUCGACAGGAGGCUCACAACAGGC | binds |  | 
16 | IL-4 2'F/NH2-8 (ssRNA, 2'-F C, 2'-NH2 U) RNA: GGGAGACAAGAAUAAACGCUCAAGUCGGAGCGAUGGAGAGCCACGAUAUACGGUCUGUGCGCUUCGACAGGAGGCUCACAACAGGC | binds |  | 
17 | TNF 11C (ssRNA) RNA: GGGAGCUCAGAAUAAACGCUCAAUGAGGCGCGCCACAGGAUGGCCCUCAACCCUUCGACAUGAGGCCCGGAUCCGGC |  |  | Kd (TNF-alpha): 140 nM
18 | IL-10 ligand 2 (ssRNA, 2'-F C and U) RNA: GGGAGACAAGAAUAAACGCUCAAAUCUCUACUGAGCCUGGAUUCGCCAGAAGUUUUAUCACAGUUUCGACAGGAGGCUCACAACAGGC |  | binds | 
19 | IL-4 2'F/NH2-41 (ssRNA, 2'-F C, 2'-NH2 U) RNA: GGGAGACAAGAAUAAACGCUCAAAGUAACGUGGGGAGCCACACGUAAUACGGCACUAAUUCGACAGGAGGCUCACAACAGGC | binds |  | 
20 | TNF 19C (ssRNA) RNA: GGGAGCUCAGAAUAAACGCUCAAUGUCGAUCGUGUCAAGGUCCGUCCUACUUCUUCGACAUGAGGCCCGGAUCCGGC |  |  | Kd (TNF-alpha): 83 nM

Row | Binder | binding result (IL-4) | binding result (IL-10) | other results
21 | IL-10 ligand 55 (ssRNA, 2'-F C and U) RNA: GGGAGACAAGAAUAAACGCUCAAACAUCGUAUAAUCUCUAAGAGCCUGGAUAUACGAUGAAUUCGACAGGAGGCUCACAACAGGC |  | binds | 
22 | IL-4 2'F/NH2-13 (ssRNA, 2'-F C, 2'-NH2 U) RNA: GGGAGACAAGAAUAAACGCUCAACUCGGGAGCCAGAGUAACAACGGCACUAUAUAAUUUUACUUCGACAGGAGGCUCACAACAGGC | binds |  | 
23 | IL-4 2'NH2-B5 (ssRNA, 2'-NH2 C and U) RNA: GGGAGACAAGAAUAAACGCUCAACGAUAGUAUACACAUGAUGAUGGGGAGCCACGUGUACGGCUUCGACAGGAGGCUCACAACAGGC | binds |  | 
24 | IL-4 2'F/NH2-25 (ssRNA, 2'-F C, 2'-NH2 U) RNA: GGGAGACAAGAAUAAACGCUCAAAGAGCCGUUUUGGGGACCCACAGUAACGGGUUUAUGGUAUUCGACAGGAGGCUCACAACAGGC | binds |  | 
25 | IL-10 ligand 56 (ssRNA, 2'-F C and U) RNA: GGGAGACAAGAAUAAACGCUCAAUCUCUAAGAGCCUGGAUGUCGAGGGGCCAUUUCGCACGCUUCGACAGGAGGCUCACAACAGGC |  | binds | 
26 | IL-4 2'NH2-27 (ssRNA, 2'-NH2 C and U) RNA: GGGAGACAAGAAUAAACGCUCAACCUUGUGGGGAGCCACGUAUACGGCCAUAGCAUACCGCAAUUCGACAGGAGGCUCACAACAGGC | binds |  | 
27 | IL-10 ligand 10 (ssRNA, 2'-F C and U) RNA: GGGAGACAAGAAUAAACGCUCAACUGAGAUCUCUAAGAGCCUGGACUCAGCUCCGACUGACCUUCGACAGGAGGCUCACAACAGGC |  | binds | 
28 | TNF 15C (ssRNA) RNA: GGGAGCUCAGAAUAAACGCUCAACUAGUUCAACCGUCCCUUCUAACAACCGUCUUCGACAUGAGGCCCGGAUCCGGC |  |  | Kd (TNF-alpha): 124 nM
29 | IL-10 ligand 34 (ssRNA, 2'-F C and U) RNA: GGGAGACAAGAAUAAACGCUCAACUGAGAUCUCUAAGAGCCUGGACUCAGCUCCGAUUGAUCCUUCGACAGGAGGCUCACAACAGGC |  | binds | 
30 | IL-10 ligand 41 (ssRNA, 2'-F C and U) RNA: GGGAGACAAGAAUAAACGCUCAACUGAGAUCUCUAAGAGCCUGGACUCAGCUCCGAUUGAACCUUCGACAGGAGGCUCACAACAGGC |  | binds | 
31 | IL-4 2'F/NH2-19 (ssRNA, 2'-F C, 2'-NH2 U) RNA: GGGAGACAAGAAUAAACGCUCAAGUCUUCCAUGGGGAGCCACAUUAACGGCGCAAUACUGAACUUCGACAGGAGGCUCACAACAGGC | binds |  | 
32 | IL-10 ligand 68 (ssRNA, 2'-F C and U) RNA: GGGAGACAAGAAUAAACGCUCAAACAUCGUAUAAUCUCUCUAAGAGCCUGGAAUACGAUGAAUUCGACAGGAGGCUCACAACAGGC |  | binds | 
33 | IL-10 ligand 6 (ssRNA, 2'-F C and U) RNA: GGGAGACAAGAAUAAACGCUCAAAUCCCAAUCUCUAAGAGCCUGGAUAAGAAUGCGCAUUGGGCUUCGACAGGAGGCUCACAACAGGC |  | binds | 
34 | IL-10 ligand 57 (ssRNA, 2'-F C and U) RNA: GGGAGACAAGAAUAAACGCUCAAAUCCCAAUCUCUAAGAGCCUGGAUGAGAAUGCGCAUUGGGCUUCGACAGGAGGCUCACAACAGGC |  | binds | 
35 | TNF 3A (ssRNA) RNA: GGGAGCUCAGAAUAAACGCUCAAGAUCGACGCAUCGAGUCGCCUCAUCGCUCCUUCGACAUGAGGCCCGGAUCCGGC |  |  | Kd (TNF-alpha): 135 nM
36 | IL-4 2'NH2-B29 (ssRNA, 2'-NH2 C and U) RNA: GGGAGACAAGAAUAAACGCUCAAUGACUGAACGAUGGUAUUGGAGAGCCACAUCAACGGCAAUUUCGACAGGAGGCUCACAACAGGC | binds |  | 
37 | TNF 9C (ssRNA) RNA: GGGAGCUCAGAAUAAACGCUCAAAUGGUGGAGGCCAUCUCAAACCCACGACACUUCGACAUGAGGCCCGGAUCCGGC |  |  | Kd (TNF-alpha): 120 nM
38 | IL-4 2'NH2-12 (ssRNA, 2'-NH2 C and U) RNA: GGGAGACAAGAAUAAACGCUCAAGGACUGGUGAGCCACGUAUACGGUCUUAGGGGCUUGGGCGUUCGACAGGAGGCUCACAACAGGC | binds |  | 
39 | IL-4 2'NH2-31 (ssRNA, 2'-NH2 C and U) RNA: GGGAGACAAGAAUAAACGCUCAAGUGCUGGUGAGCCACGCAUACGGUCUUAGGGGCUUGAGCGUUCGACAGGAGGCUCACAACAGGC | binds |  | 
40 | IL-4 2'NH2-B31 (ssRNA, 2'-NH2 C and U) RNA: GGGAGACAAGAAUAAACGCUCAAGAGCUGGUGAGCCACGUAUACGGUCUUAGGGGCUUGGGCGUUCGACAGGAGGCUCACAACAGGC | binds |  | 

Reference: patent US5972599, “High affinity nucleic acid ligands of cytokines” (NeXstar Pharmaceuticals, Inc.)
